From patent US20050250700A1
Bridge positions count the residues as written; N and C are the ends. Side chains are listed from the residue outwards. * marks the point of attachment. Biotin = O=C1N[C@H]2[C@H](CS[C@H]2CCCCC(=O)*)N1; AEEA = NCCOCCOCC(=O)O

Columns and labels:
[1] = biological target: KDR (VEGFR-2), full-length receptor on cells (human), P35968; assay: competitor 125I-VEGF (300 pM) on KDR-transfected 293H cells; peptide 30 µM; settings: remark: other sources report otherwise
[2] = biological target: KDR (VEGFR-2), full-length receptor on cells (human), P35968; assay: competitor 125I-VEGF (300 pM) on KDR-transfected 293H cells; peptide 0.3 µM; settings: remark: other sources report otherwise

KDR (VEGFR-2), full-length receptor on cells (human), P35968, sequence (P35968 20-1356): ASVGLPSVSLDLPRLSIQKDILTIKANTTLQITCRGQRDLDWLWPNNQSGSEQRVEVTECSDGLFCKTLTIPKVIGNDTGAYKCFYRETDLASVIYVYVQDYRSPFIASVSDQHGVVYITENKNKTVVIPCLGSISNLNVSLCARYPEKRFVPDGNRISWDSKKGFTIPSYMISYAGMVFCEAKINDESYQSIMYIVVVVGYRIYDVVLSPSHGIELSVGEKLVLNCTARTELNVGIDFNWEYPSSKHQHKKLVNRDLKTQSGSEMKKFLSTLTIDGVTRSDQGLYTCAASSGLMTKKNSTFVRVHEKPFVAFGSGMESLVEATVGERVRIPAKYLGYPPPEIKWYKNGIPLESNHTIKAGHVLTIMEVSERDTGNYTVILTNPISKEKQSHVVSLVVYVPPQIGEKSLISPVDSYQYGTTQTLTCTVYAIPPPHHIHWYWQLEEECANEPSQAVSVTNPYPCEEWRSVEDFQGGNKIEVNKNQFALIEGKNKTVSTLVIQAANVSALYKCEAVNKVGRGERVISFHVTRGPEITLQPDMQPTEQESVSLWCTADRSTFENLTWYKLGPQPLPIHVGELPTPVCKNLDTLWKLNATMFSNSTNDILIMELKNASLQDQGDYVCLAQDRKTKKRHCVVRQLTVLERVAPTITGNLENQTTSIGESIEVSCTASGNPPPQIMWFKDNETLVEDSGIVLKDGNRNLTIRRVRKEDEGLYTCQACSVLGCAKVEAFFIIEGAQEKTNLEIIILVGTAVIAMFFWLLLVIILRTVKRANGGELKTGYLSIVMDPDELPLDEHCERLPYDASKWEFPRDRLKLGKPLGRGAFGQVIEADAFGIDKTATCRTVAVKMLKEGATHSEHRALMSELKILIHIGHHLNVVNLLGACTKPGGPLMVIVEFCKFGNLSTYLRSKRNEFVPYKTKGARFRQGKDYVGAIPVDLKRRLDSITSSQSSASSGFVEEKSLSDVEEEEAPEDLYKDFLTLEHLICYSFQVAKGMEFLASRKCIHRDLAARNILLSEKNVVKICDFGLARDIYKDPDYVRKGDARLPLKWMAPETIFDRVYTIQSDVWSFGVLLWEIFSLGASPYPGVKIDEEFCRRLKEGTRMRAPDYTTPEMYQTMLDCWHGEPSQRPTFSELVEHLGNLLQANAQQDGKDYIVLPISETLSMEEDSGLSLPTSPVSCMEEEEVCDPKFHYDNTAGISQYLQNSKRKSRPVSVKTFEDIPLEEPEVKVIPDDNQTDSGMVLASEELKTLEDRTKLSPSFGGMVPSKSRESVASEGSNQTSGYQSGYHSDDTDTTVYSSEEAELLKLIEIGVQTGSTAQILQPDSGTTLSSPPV

- % inhibition of 125I-labeled VEGF binding [1]: 48%
- % inhibition of 125I-labeled VEGF binding [2]: 24.4%
Binder: Ac-AGPKWCEEDWYYCMITGTGGGK([AEEA-AEEA-Biotin])-NH2 (disulfide 6-13 (inferred)) [biotinylated SEQ ID NO:264 with a JJ spacer]
